Results taken from patent US20170334973A1 (INTEGRATED BIOTHERAPEUTICS, published 2017).

Legend:
[1] = target: SUDV GPddmuc (Sudan virus (SUDV), UniProt Q66814 33-650); assay: ELISA
[2] = target: EBOV GPddmuc (Ebola virus (EBOV), UniProt Q05320 33-650); assay: ELISA
[3] = target: MARV GPddmuc (Marburg virus (MARV), UniProt P35253 19-648); assay: native ELISA

| Binder | EC50 [1] | EC50 [2] | binding result [3] |
| --- | --- | --- | --- |
| FVM01P (antibody, V domains shown) VH: QVQLQESGPGLVKPSETLSLTCTVSGASISNYRWNWIRQPPGKGLEWIGEINGYSGSTNYNPSLKSRVTISKDASKNQFSLKLTSVTAADTAVYYCPIIGGFTLEWFDVWGPGVLVTVSS VL: DVVLTQSPSSLSASVGDRVTITCRASQGIRNYLNWYQQKPRKAPKLLIYAASSLQSGVPSRFSGSGSGTEFTLTISSLQAEDFATYYCLQGYRTPFTFGPGTKLDIKR | 0.047 nM | 0.057 nM | no binding |
| FVM05 (antibody, V domains shown) VH: QVQLQESGPGLVKPSETLSLTCAVSGFSISSGYGWSWIRQPPGKGLEWIGYIGGSSGSTSYNPSLKSRVTLSADTSKNQFSLKLSSVTAADTAVYYCARRYSSYRSWFDVWGPGVLVTVSS VL: SSGLTQPRSVSVSPGQTARITCGGDNIGSKSVHWYQQKPPQAPVLVIYADSERPSGIPERFSGSNSGNTATLTISGVEAGDEADYYCQVWDSSSDHWVFGGGTRLTVL |  | 2.67 nM | no binding |
| FVM29 (antibody, V domains shown) VH: EVQLVQSGAEVKRPGESLKISCQTSGNSFTNNWISWVRQMPGKGLEWMGAIDPSDSETRYSPSFQGQVTISADKSINTAYLQWSSLKASDTATYYCVKGSETWGQGVLVTVSS VL: QPVLTQPASLSASPGASASLTCTFSGGINVAGYNILWYQQKAGSPPRYLLRYKSDSTKDQGSGVPSRFSGSKDASANTGILRISGLQSEDEADYYCAIGHSSGWIFGGGTRLTVL | 12.8 nM |  | no binding |
| FVM06 (antibody, V domains shown) VH: EVQLVQSGAEVKRPGESLTISCKTSGYSFTNYWISWVRQMPGEGLEWMGAIDPSDSDTRYSPSFQGQVTMSADKSITTAYLQWSSLKASDTATYYCVKGSETWGQGVLVTVSS VL: QPVLTQPASLSASPGASASLTCTFSGGINVAGYNILWYQQKAGSPPRYLLRYKSDSTKDQGSGVPSRFSGSKDASANTGILRISGLQSEDEADYYCAIGHSSGWIFGGGTRLTVL | 0.05 nM | 0.059 nM | no binding |
| FVM27 (antibody, V domains shown) VH: EVQLVQSGAEVKRPGESLKISCKTSGYSFASSWISWVRQMPGKGLEWMGAIDPSDSATRYSPSFQGQVTISADKSISTAYLQWSSLKASDTATYYCVKGSETWGQGVLVTVSS VL: QPVLTQPASLSASPGASASLTCTFSGGINVAGYNILWYQQKAGSPPRYLLRYKSDSTKDQGSGVPSRFSGSKDASANTGILRISGLQSEDEADYYCAIGHSSGWIFGGGTRLIVL | 0.04 nM | 0.047 nM | no binding |
| FVM07 (antibody, V domains shown) VH: EVQLVQSGAEVKRPGESLTISCKTSGYSFTDSWIGWVRQMPGKGLEWMGSIYPGDSDTKYNPSFQGHVTISADKSISTTYLQWSSLKASDTATYYCVAREAYWGQGVLVTVSS VL: QPVLTQPASLSASPGASASLTCTFSGGINVAGYHIFWYQQKPGSPPRYLLRYKSDSDKGQGSGVPSRFSGSKDASANTGILRISGLQSEDEADYYCAIGHSSGVLFGGGTRLTVL | 0.491 nM | 0.119 nM | no binding |
| FVM08 (antibody, V domains shown) VH: EVQLVQSGAEVKRPGESLTISCKTSGYSFTDSWVAWVRQMPGKGLEWMGSIYPGDSDTRYNPSFEGQVTISADKSISTTYLQWSSLRASDTATYYCVKGADDWGQGVLVTVSS VL: QPVLTQPASLSASPGASASLTCTFSGGINVAGYNILWYQQKAGSPPRYLLRYKSDSTKDQGSGVPSRFSGSKDASANTGILRISGLQSEDEADYYCAIGHSSGWIFGGGTRLTVL | 0.048 nM | 0.461 nM | no binding |
| FVM10 (antibody, V domains shown) VH: QVQLVQSGAEVKRPGESLKISCQTSGYSFTDSWVAWVRQMPGKGLEWLGSIYPGDSETKYNPSFQGHVTISADKSISTAYLQWSSLKASDTATYYCAKGSETWGQGLRVTVSS VL: QAGLTQPASLSASPGASASLTCTFSGGINVAGYNILWYQQKPGSPPRYLLRYKSDSDKDQGSGVPSRFSGSKDASANTGILRISGLQSEDEADYYCAIGHSSGWIFGGGTRLTVL | 0.082 nM | 0.079 nM | no binding |
| FVM39 (antibody, V domains shown) VH: EVQLVQSGAEVKRPGESLRISCKTSGYSFTDSWISWVRQMPGKGLEWLGSIYPGDSETKYNPSFQGHVTISADKSVTTTYLKWSSLKASDTATYYCVKGSETWGQGVLVTVSS VL: QPVLTQPASLSASPGASASLTCTFSGGINVAGYNILWYQQKAGSPPRYLLRYKSDSTKDQGSGVPSRFSGSKDASANTGILRISGLQSEDEADYYCAIGHSSGWIFGGGTRLTVL | 0.02 nM | 0.027 nM | no binding |
| FVM11 (antibody, V domains shown) VH: EVQLVQSGAEVKRPGESLTISCKTSGYSFTDSWVAWVRQMPGKGLEWLGSIYPGDSETKYNPSFQGHVTISADKSVTTTYLKWSSLKASDTATYYCVKGSETWGQGVLVTVSS VL: NFMLTQPASLSASPGASASLTCTFSGGINVAGYNILWYQQKAGSPPRYLLRYKSDSTKDQGSGVPSRFSGSKDASANTGILRISGLQSEDEADYYCAIGHSSGWIFGGGTRLTVL | 0.053 nM | 0.059 nM | no binding |
| FVM14 (antibody, V domains shown) VH: EVQLVQSGAEVKRPGESLKISCQTSGYSFTSTWITWVRQMPGKGLEWLGSIYPGDSETKYNPSFQGHVTISADKSISTTYLQWNSLKASDTATYYCVKGSETWGQGVLVTVSS VL: QAVVTQPASLSASPGASASLTCTFSGGINVAGYNILWYQQKAGSPPRYLLRYKSDSTKDQGSGVPSRFSGSKDASANTGILRISGLQSEDEADYYCAIGHSSGWIFGGGTRLTVL | 0.077 nM | 0.086 nM | no binding |
| FVM15 (antibody, V domains shown) VH: QVQLVQSGAEVKRPGESLRISCKTSGYTFTDYWIAWVRQMPGKGLEWMGSIYPGDSETKYNPSFQGHVTISADKSVTTTYLKWSRLKASDTATYYCVKGSETWGQGVLVTVSS VL: QPVLTQPASLSASPGASASLTCTFSGGINVAGYNILWYQQKAGSPPRYLLRYKSDSTKDQGSGVPSRFSGSKDASANTGILRISGLQSEDEADYYCAIGHSSGWIFGGGTRLTVL | 0.035 nM | 0.042 nM | no binding |
| FVM16 (antibody, V domains shown) VH: EVQLVQSGAEVKRPGESLKISCRTSGYSFTSTWINWVRQMPGKGLEWLGSIYPGDSETKYNPSFQGHVTISADKSVTTTYLKWSSLKASDTATYYCVKGSETWGQGVLVTVSS VL: KPMLTQPASLSASPGASASLTCTFSGGINVAGYNILWYQQKAGSPPRYLLRYKSDSTKDQGSGVPSRFSGSKDASANTGILRISGLQSEDEADYYCAIGHSSGWVFGGGTRLTVL | 0.059 nM | 0.066 nM | no binding |
| FVM22 (antibody, V domains shown) VH: EVQLVQSGAEVKRPGESLTISCKTSGYSFTDSWVAWVRQMPGKGLEWLGSIYPGDSETKYNPSFQGHVTISADKSISTAYLQWSSLKASDTATYYCAKGSETWGQGVLVTVSS VL: SSGLTQPASLSASPGASASLTCTFSGGINVAGYNILWYQQKAGSPPRYLLRYKSDSTKDQGSGVPSRFSGSKDASANTGILRISGLQSEDEADYYCAIGHSSGWIFGGGTRLTVL | 0.6 nM | 0.067 nM | no binding |
| FVM26 (antibody, V domains shown) VH: QVQLVQSGAEVKRPGESLRISCKTSGYTFTDYWIAWVRQMPGKGLEWMGSIYPGDSETKYNPSFQGHVTISADKSVTTTYLKWSRLKASDTATYYCVKGSETWGQGVLVTVSS VL: QPVLTQPASLSASPGASASLTCTFSGGINVAGYNILWYQQKAGSPPRYLLRYKSDSTKDQGSGVPSRFSGSKDASANTGILRISGLQSEDEADYYCAIGHSSGWIFGGGTRLTVL | 0.08 nM | 0.1 nM | no binding |
| FVM31 (antibody, V domains shown) VH: QVQLVQSGAEVKRPGESLTISCKTSGYSFTDSWVAWVRQMPGKGLEWLGSIYPGDSDARYNPSFQGHVTISADTSVTTTYLKWSSLKASDTATYYCVKGSETWGQGVLVTVSS VL: KPMLTQPASLSASPGASASLTCTFSGGINVAGYNILWYQQKAGSPPRYLLRYKSDSTKDQGSGVPSRFSGSKDASANTGILRISGLQSEDEADYYCAIGHSSGWIFGGGTRLTVL | 0.093 nM | 0.107 nM | no binding |
| FVM33 (antibody, V domains shown) VH: QVQLVQSGAEVKRPGESLKISCKTSRYSFTSSWIGWVRQMPGKGLEWLGSIYPGDSDTRYNPSFQGHVTISADKSVTTTYLKWSSLKASDTATYYCVKGSETWGQGVLVTVSS VL: QPVLTQPASLSASPGASASLTCTFSGGINVAGYNILWYQQKAGSPPRYLLRYKSDSTKDQGSGVPSRFSGSKDASANTGILRISGLQSEDEADYYCAIGHSSGWIFGGGTRLTVL | 0.04 nM | 0.04 nM | no binding |
| FVM36 (antibody, V domains shown) VH: EVQLVQSGAEVKRPGESLTISCKTSGYSFTDNWISWVRQMPGKGLEWMGSIYPGDSETKYNPSFQGHVTISADKSVTTTYLKWSSLKASDTATYYCVKGSETWGQGVLVTVSS VL: QSVLTQPASLSASPGASASLTCTFSGGINVAGYNILWYQQKAGSPPRYLLRYKSDSTKDQGSGVPSRFSGSKDASANTGILRISGLQSEDEADYYCAIGHSSGWIFGGGTRLTVL |  |  | no binding |
| FVM42 (antibody, V domains shown) VH: EVQLVESGAEVKRPGESLTISCKTSGYSFTDSWVAWVRQMPGKGLEWMGSIYPGDSETKYNPSFQGHVTISADKSVTTTYLKWSSLKASDTATYYCVKGSETWGQGVLVTVSS VL: QTVVTQPASLSASPGASASLTCTFSGGINVAGYNILWYQQKAGSPPRYLLRYKSDSTKDQGSGVPSRFSGSKDASANTGILRISGLQSEDEADYYCAIGHSSGWIFGGGTRLTVL |  |  | no binding |
